How the values were obtained:
[1] = target: T1, mouse HER3 (Mus musculus, UniProt Q61526); experiment: ELISA cross-reactivity, mouse HER3; format: binding
T1 construct: purchased Sino Biological Inc., China
Description: (§1) ELISAs were used to determine the binding specificity of the antibodies. The antibodies were analysed for binding to human HER3 polypeptide, as well as respective mouse, rat and monkey homologues of HER3 (Sino Biological Inc., China). The antibodies were also analysed for their ability to bind to human EGFR and human HER2 (Sino Biological Inc., China).
(§2) ELISAs were carried out according to standard protocols. Briefly, 96-well plates (Nunc, Denmark) were coated with 0.1 μg/ml of target polypeptide in phosphate-buffered saline (PBS) for 16 h at 4° C. After blocking for 1 h with 1% BSA in Tris buffer saline (TBS) at room temperature, the anti-HER3 antibody was serially diluted with the highest concentration being 10 μg/ml, and added to the plate. Post 1 h incubation at room temperature, plates were washed three times with TBS containing 0.05% Tween 20 (TBS-T) and were then incubated with a HRP-conjugated anti-His antibody (Life Technologies, Inc., USA) for 1 h at room temperature. After washing, plates were developed with colorimetric detection substrate 3,3′,5,5′-tetramethylbenzidine (Turbo-TMB; Pierce, USA) for 10 min. The reaction was stopped with 2M H2SO4, and OD was measured at 450 nm. […]

[2] = target: human HER3 (Homo sapiens, UniProt P21860); experiment: Global affinity study, Bio-Layer Interferometry (Octet QK384); format: binding; details: IgG1 format, 25° C.; read-out: KD
Description: The anti-HER3 antibody clones in IgG1 format were analysed for binding affinity to human HER3. Bio-Layer Interferometry (BLI) experiments were performed using the Octet QK384 system (ForteBio). anti-Human IgG Capture (AHC) Octet sensor tips (Pall ForteBio, USA) were used to anti-HER3 antibodies (25 nM). All measurements were performed at 25° C. with agitation at 1000 rpm. Kinetic measurements for antigen binding were performed by loading His-tagged human HER3 antigens at different concentrations for 120 s, followed by a 120 s dissociation time by transferring the biosensors into assay buffer containing wells. Sensograms were referenced for buffer effects and then fitted using the Octet QK384 user software (Pall ForteBio, USA). Kinetic responses were subjected to a global fitting using a one site binding model to obtain values for association (Kon), dissociation (Koff) rate constants and the equilibrium dissociation constant (KD). Only curves that could be reliably fitted with the software (R^2>0.90) were included in the analysis.
Bio-Layer Interferometry (BLI) experiments were performed using the Octet QK384 system (ForteBio). […] Binding was detected using titrated HIS-tagged human HER3 in steps of baseline (60 s), loading (120 s), baseline2 (60 s), association (120 s), dissociation (FcA 120 s, FcB 600 s) and regeneration (15 s). Sensorgrams were analysed as described in Example 3.3. […]

[3] = target: T2, human EGFR (Homo sapiens, UniProt P00533); experiment: ELISA specificity, human EGFR; format: binding; details: antibody up to 10 μg/ml
T2 construct: purchased Sino Biological Inc., China
Description: as §1
ELISAs were carried out according to standard protocols. Briefly, 96-well plates (Nunc, Denmark) were coated with 0.1 μg/ml of target polypeptide in phosphate-buffered saline (PBS) for 16 h at 4° C. After blocking for 1 h with 1% BSA in Tris buffer saline (TBS) at room temperature, the anti-HER3 antibody was serially diluted with the highest concentration being 10 μg/ml, and added to the plate. Post 1 h incubation at room temperature, plates were washed three times with TBS containing 0.05% Tween 20 (TBS-T) and were then incubated with a HRP-conjugated anti-His antibody (Life Technologies, Inc., USA) for 1 h at room temperature. […] The reaction was stopped with 2M H2SO4, and OD was measured at 450 nm.
The antibodies were analysed for their ability to bind to human HER3 polypeptide as well as human HER1 (EGFR) and human HER2 (Sino Biological Inc., China). […]
ELISAs were carried out according to standard protocols. […] The reaction was stopped with 2M H2SO4, and OD was measured at 450 nm.

[4] = test system: OvCAR8 cell-line derived mouse model of ovarian carcinoma; experiment: OvCAR8 cell-line derived xenograft model; format: in vivo; details: OvCAR8, IP biweekly 500 μg, 9 doses
Description: Tumor volumes were measured 3 times a week using a digital caliper and calculated using the formula [L ×W2/2]. Study End point was considered to have been reaches once the tumors of the control arm measured >1.5 cm in length.
The model was established by subcutaneous injection of 1×10^6 OvCAR8 cells into the right flanks of female NCr nude mice (n=6 mice per treatment group).
10D1 was administered IP, biweekly at 500 μg per dose (for a total of 9 doses); a control treatment group received an equal volume of PBS.
Tumour cells were inserted with matrigel subcutaneously into the right flanks of female NCr nude mice.
Murine tumour efficacy studies were performed using cell-line derived xenograft (CDX) models in mice. Female NCr nude mice (5-8 weeks old, 21-29 g) were subcutaneously implanted with N87, A549, FaDu, OvCAR8 cells. Treatment was initiated when tumours reached approximately 100 to 200 mm^3. Vehicle (PBS) or therapeutic antibodies (25 mg/kg) were administered intraperitoneally (IP) at indicated time points (weekly FaDu and OvCAR8, twice weekly N87 and A549). Tumours were measured twice per week using a calliper and tumour volume (mm^3) was calculated. Each data point represents the mean tumour volume ±SEM (n=8 mice).

[5] = target: T3, rat HER3 (Rattus norvegicus, UniProt Q62799); experiment: ELISA cross-reactivity, rat HER3; format: binding
T3 construct: purchased Sino Biological Inc., China
Description: as §1, §2

[6] = test system: A549 cell-line derived mouse model of lung adenocarcinoma; experiment: A549 cell-line derived xenograft model; format: in vivo; details: A549, NCr nude mice, IP biweekly 500 μg, 10 doses
[7] = test system: cynomolgus macaque HER3; experiment: ELISA cross-reactivity, cynomolgus macaque HER3; format: binding
Description: as §1, §2

T1 sequence (Q61526 20-1339): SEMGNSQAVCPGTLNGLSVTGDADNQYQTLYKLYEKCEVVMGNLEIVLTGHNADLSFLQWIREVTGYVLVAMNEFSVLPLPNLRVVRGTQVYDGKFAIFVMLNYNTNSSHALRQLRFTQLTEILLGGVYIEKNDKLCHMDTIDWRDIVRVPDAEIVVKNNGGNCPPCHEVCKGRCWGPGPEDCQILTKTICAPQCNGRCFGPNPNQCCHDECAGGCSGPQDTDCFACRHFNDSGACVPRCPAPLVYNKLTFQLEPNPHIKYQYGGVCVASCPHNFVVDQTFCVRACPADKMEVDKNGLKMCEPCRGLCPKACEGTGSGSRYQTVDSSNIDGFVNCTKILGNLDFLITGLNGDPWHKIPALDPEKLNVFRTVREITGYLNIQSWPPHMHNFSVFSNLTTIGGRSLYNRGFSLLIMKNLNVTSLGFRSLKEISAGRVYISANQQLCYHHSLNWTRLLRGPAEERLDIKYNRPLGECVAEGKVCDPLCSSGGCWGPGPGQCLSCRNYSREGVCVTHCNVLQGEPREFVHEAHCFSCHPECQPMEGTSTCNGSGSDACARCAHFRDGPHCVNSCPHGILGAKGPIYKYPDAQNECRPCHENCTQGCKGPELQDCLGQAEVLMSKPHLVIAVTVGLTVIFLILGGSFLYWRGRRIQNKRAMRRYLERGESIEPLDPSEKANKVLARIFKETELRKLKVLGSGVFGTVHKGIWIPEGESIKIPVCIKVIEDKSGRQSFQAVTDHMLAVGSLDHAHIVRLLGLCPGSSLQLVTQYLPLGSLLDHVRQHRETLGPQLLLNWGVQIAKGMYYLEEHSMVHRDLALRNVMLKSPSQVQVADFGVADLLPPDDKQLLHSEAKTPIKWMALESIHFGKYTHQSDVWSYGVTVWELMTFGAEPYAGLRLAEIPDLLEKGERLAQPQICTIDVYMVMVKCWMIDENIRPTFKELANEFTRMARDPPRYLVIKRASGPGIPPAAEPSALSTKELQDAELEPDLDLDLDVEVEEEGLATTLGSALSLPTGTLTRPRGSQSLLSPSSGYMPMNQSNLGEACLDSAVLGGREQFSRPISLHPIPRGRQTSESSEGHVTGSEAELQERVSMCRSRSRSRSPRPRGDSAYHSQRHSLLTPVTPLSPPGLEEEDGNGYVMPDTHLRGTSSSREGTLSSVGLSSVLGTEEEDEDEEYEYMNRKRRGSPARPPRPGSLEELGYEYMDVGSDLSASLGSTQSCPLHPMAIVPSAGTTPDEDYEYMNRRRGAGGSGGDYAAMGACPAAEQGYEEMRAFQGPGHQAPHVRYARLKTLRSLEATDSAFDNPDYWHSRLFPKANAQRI
T3 sequence (Q62799 20-1339): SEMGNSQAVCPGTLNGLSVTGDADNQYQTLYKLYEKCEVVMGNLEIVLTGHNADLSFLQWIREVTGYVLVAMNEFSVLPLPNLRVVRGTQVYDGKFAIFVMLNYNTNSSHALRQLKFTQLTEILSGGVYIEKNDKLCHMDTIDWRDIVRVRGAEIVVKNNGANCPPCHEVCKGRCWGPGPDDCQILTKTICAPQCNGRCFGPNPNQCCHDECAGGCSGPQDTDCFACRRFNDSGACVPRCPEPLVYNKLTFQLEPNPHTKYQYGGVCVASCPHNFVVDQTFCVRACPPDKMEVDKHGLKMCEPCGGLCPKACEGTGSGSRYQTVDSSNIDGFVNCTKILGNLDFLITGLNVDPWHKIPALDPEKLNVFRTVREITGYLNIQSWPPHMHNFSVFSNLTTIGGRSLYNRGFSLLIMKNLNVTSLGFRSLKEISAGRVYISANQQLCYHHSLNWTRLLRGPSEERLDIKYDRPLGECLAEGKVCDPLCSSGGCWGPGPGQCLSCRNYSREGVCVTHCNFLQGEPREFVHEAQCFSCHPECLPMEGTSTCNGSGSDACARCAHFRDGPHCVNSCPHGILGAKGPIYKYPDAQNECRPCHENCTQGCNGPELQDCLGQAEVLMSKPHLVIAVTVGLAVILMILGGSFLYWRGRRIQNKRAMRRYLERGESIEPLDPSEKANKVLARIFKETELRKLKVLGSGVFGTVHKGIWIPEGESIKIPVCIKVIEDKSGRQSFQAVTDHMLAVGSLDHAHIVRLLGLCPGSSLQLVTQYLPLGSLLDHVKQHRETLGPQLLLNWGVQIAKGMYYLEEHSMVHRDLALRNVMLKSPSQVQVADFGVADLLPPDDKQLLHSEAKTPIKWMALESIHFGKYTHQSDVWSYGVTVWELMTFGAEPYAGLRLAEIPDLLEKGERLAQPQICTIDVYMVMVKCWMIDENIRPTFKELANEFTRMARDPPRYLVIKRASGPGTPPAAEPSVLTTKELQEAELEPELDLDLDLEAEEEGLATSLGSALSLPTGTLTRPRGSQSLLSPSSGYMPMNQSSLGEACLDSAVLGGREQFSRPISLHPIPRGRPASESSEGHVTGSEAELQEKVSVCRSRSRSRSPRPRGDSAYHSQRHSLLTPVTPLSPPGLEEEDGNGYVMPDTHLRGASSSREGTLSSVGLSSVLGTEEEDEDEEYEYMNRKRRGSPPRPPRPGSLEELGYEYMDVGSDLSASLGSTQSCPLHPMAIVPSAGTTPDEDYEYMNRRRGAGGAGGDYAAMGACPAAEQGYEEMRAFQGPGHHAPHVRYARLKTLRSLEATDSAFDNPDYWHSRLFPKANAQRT

B1: 10D1: anti-HER3 antibody clone, VH SEQ ID NO:24, VL SEQ ID NO:74; [1] of Example 2.2 (antibody, V domains shown)
VH: DVQLQESGPDLVKPSQSLSLTCTVTGYSITSGYSWHWIRQFPGNKLEWMGSIHYSGGTNYNPSLKSRISITRDTSKNQFFLQLNSVTTEDTATYFCARMTTAPRYPFDYWGQGTTLTVSS
VL: DIVMTQSQKFMSTSVGDRVSVTCKASQIVGSNVAWYQQKPGQSPKPLIYSASYRYSGVPDRFTASGSGTDFTLTITNVQSEDLAEYFCQQYSSHPLTFGAGTKLELK
binding / cross-reactivity with mouse HER3 [1]: substantial cross-reactivity
Kd [2]: 9.58 nM
binding to human EGFR (HER1) [3]: not to bind
inhibition of tumor growth [4]: ~74%
binding / cross-reactivity with rat HER3 [5]: substantial cross-reactivity
inhibition of tumor growth [6]: ~91%
binding / cross-reactivity with cynomolgus macaque HER3 [7]: substantial cross-reactivity
